Source: the supplement of paper PMC10065799, “High-throughput profiling of sequence recognition by tyrosine kinases and SH2 domains using bacterial peptide display” (eLife, 2023)

Key:
[1] = system: AncSZ; assay: phosphorylation enrichment, bacterial display (enrichment ratio); higher = better substrate or ligand; peptides without Tyr show the background
[2] = molecular target: EPHB1 (UniProt P54762); assay: as above
[3] = molecular target: EPHB2 (UniProt P29323); assay: as above
[4] = molecular target: FGFR1 (UniProt P11362); assay: as above
[5] = molecular target: FGFR3 (UniProt P22607); assay: as above
[6] = system: Fer (mouse); assay: as above
[7] = molecular target: Fes (UniProt P07332); assay: as above
[8] = molecular target: Fyn (UniProt P06241); assay: as above
[9] = molecular target: Hck (UniProt P08631); assay: as above
[10] = molecular target: Jak2 (UniProt O60674); assay: as above
[11] = molecular target: MERTK (UniProt Q12866); assay: as above
[12] = system: c-Abl (mouse); assay: as above
[13] = system: c-Src; assay: as above
[14] = molecular target: Grb2 SH2 (UniProt P62993); assay: SH2 binding enrichment of the phosphorylated peptide, bacterial display (enrichment ratio); higher = better substrate or ligand; peptides without Tyr show the background
[15] = molecular target: SHP2-C SH2; assay: as above
[16] = molecular target: c-Src SH2; assay: as above
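Wherever SH2 binding enrichment of the phosphorylated peptide, bacterial display is given: peptide library displayed on the E. coli surface as eCPX fusions, selected cells deep-sequenced, score is each peptide's frequency after selection divided by its frequency in the input.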
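Wherever phosphorylation enrichment, bacterial display is given: 11-residue human phosphosite peptides and single-mutation variants displayed on the E. coli surface, counted by deep sequencing, each peptide's frequency after selection divided by its frequency in the unselected input library; frequency after pTyr selection over input frequency; kinase dosed for 20-30% of maximal phosphorylation in three min.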

FGFR3, sequence (P22607 whole entry, looked up): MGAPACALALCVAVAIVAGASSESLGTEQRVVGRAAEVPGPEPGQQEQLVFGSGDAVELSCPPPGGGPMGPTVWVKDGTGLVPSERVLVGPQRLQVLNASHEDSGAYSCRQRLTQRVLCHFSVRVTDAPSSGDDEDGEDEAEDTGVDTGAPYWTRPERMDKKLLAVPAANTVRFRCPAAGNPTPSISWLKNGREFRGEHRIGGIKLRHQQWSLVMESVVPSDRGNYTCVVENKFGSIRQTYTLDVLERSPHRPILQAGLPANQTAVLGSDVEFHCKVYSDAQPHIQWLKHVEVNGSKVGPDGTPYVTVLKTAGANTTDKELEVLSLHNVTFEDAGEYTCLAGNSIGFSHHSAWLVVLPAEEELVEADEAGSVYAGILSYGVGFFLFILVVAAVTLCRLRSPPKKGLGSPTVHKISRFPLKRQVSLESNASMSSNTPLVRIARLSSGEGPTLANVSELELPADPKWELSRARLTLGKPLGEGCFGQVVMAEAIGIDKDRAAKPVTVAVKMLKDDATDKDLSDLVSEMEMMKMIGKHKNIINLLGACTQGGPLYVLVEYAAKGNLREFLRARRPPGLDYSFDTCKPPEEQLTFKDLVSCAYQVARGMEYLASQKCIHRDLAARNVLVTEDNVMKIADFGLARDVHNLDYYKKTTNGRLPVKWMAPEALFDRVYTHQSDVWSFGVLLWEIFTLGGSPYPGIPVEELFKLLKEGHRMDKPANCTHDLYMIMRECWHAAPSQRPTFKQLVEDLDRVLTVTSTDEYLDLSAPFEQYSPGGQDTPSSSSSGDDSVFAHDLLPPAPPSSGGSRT
Fes, sequence (P07332 whole entry, looked up): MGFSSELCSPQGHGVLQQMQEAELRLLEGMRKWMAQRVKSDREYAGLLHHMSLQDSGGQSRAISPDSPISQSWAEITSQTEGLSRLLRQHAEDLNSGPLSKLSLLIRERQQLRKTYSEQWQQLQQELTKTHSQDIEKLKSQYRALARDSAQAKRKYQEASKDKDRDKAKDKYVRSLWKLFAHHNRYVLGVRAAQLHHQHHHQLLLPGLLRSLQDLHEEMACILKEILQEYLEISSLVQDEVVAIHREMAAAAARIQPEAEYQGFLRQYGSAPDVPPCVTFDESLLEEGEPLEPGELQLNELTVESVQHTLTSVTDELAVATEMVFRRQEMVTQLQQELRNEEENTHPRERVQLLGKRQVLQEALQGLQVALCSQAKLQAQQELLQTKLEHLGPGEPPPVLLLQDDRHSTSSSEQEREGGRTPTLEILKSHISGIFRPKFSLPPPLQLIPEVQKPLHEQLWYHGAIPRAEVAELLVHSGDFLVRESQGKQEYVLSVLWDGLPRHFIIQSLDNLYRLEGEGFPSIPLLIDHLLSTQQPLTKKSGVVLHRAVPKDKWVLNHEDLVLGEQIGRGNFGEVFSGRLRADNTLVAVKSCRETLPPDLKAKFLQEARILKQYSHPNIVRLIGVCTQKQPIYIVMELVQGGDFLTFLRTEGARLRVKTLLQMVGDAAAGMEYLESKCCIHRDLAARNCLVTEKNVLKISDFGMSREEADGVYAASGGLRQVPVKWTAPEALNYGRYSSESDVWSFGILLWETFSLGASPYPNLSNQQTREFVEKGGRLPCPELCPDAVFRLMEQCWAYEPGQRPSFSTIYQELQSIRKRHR
EPHB1, sequence (P54762 whole entry, looked up): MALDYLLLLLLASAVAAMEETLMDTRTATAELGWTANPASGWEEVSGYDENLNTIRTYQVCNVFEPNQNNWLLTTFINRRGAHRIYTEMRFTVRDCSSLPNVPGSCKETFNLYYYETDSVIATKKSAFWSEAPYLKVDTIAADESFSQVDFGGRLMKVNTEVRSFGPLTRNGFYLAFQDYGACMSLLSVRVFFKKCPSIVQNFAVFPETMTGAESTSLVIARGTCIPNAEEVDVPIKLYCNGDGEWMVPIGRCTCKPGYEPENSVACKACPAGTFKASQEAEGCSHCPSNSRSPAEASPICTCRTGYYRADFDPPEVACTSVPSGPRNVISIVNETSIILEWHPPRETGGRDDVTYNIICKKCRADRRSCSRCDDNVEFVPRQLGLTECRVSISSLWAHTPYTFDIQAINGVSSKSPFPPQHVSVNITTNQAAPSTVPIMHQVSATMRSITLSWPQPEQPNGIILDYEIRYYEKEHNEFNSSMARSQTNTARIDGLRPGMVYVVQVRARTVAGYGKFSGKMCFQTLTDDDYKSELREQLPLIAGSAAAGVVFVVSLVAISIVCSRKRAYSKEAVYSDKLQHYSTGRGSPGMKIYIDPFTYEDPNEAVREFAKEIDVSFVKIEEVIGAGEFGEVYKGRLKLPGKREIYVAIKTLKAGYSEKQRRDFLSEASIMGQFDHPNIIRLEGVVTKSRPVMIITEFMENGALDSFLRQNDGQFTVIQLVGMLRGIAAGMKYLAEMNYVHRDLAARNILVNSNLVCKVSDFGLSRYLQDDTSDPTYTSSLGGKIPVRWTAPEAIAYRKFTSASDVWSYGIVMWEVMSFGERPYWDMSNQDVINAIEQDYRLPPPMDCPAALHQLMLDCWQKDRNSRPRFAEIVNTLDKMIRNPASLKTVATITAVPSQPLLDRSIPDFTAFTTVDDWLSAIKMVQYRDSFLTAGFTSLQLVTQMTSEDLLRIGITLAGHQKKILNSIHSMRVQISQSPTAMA
FGFR1, sequence (P11362 whole entry, looked up): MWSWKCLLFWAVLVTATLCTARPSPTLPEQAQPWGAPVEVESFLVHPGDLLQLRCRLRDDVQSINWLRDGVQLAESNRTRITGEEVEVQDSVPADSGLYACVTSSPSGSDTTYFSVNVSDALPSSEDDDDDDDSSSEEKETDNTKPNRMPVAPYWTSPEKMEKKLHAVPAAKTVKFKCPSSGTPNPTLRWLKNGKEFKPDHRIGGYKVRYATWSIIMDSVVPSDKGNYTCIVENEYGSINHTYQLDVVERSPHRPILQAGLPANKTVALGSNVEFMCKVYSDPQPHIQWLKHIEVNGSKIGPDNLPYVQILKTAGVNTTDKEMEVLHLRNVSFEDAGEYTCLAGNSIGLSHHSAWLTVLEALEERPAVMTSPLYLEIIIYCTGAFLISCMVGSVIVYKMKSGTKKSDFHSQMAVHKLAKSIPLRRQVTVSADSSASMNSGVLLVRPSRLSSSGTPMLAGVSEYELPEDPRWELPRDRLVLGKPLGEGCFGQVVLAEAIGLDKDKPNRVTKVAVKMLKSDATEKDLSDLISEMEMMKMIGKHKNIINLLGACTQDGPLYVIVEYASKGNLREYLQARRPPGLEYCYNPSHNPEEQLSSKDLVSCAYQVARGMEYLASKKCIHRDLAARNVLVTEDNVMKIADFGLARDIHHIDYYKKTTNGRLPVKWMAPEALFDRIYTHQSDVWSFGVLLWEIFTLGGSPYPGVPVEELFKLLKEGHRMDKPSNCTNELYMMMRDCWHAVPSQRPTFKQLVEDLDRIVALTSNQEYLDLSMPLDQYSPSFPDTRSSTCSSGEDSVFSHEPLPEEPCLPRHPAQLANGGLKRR
Fyn, sequence (P06241 whole entry, looked up): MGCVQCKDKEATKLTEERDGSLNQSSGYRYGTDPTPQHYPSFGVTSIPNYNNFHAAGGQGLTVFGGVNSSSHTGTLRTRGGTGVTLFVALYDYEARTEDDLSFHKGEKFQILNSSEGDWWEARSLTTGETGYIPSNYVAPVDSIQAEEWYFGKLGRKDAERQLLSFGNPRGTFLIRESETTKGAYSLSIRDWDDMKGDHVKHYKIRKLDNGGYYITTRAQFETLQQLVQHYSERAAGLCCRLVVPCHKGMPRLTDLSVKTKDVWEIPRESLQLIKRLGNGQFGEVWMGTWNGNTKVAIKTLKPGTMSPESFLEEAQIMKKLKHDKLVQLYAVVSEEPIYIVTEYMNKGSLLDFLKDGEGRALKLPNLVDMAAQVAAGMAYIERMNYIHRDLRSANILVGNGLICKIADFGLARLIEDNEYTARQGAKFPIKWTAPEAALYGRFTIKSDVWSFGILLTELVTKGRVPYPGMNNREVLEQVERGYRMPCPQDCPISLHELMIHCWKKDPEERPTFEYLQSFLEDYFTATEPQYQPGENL
Jak2, sequence (O60674 whole entry, looked up): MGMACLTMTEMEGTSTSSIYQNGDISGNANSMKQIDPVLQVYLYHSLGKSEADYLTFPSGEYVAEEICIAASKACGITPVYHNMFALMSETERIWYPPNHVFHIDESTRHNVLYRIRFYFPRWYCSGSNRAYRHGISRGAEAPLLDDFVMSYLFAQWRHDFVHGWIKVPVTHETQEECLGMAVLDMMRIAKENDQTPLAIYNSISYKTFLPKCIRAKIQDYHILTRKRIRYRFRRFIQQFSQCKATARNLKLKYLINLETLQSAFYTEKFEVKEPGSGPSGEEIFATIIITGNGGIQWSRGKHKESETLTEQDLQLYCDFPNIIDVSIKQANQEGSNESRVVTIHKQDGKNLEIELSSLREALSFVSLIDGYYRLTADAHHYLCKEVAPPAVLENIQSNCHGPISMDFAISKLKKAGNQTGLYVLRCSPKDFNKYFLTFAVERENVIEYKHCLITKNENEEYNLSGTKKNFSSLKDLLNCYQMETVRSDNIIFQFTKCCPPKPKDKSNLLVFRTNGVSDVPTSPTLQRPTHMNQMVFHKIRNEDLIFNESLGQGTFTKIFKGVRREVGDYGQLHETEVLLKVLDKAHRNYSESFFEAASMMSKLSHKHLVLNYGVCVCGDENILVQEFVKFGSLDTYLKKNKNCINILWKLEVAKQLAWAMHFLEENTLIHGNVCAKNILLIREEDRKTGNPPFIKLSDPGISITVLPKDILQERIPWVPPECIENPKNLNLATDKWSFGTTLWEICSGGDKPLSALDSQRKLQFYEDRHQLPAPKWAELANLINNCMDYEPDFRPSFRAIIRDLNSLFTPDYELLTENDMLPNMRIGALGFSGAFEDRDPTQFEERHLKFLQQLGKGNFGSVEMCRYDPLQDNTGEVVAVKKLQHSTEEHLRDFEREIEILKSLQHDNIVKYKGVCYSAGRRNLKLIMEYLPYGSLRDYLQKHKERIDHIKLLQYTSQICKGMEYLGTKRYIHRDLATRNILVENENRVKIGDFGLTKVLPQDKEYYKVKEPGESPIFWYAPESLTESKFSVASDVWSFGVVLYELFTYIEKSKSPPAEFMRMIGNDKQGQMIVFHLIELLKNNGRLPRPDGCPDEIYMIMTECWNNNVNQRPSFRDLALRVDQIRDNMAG

Sequence | phosphorylation enrichment [1] | phosphorylation enrichment [2] | phosphorylation enrichment [3] | phosphorylation enrichment [4] | phosphorylation enrichment [5] | phosphorylation enrichment [6] | phosphorylation enrichment [7] | phosphorylation enrichment [8] | phosphorylation enrichment [9] | phosphorylation enrichment [10] | phosphorylation enrichment [11] | phosphorylation enrichment [12] | phosphorylation enrichment [13] | SH2 binding enrichment [14] | SH2 binding enrichment [15] | SH2 binding enrichment [16]
EDGRLYAVKRS [PKMYT1_Y136] | 0.753 | 0.417 | 0.496 | 0.465 | 0.633 | 0.444 | 0.856 | 0.486 | 0.612 | 0.728 | 0.433 | 0.692 | 0.485 | 0.891 | 0.833 | 0.525
EDKSIYRRGAR [PRKCI_Y125] | 0.674 | 0.315 | 0.425 | 0.435 | 0.696 | 0.356 | 0.669 | 0.351 | 0.429 | 0.614 | 0.621 | 0.644 | 0.593 | 0.713 | 0.594 | 0.409
EDNPEYMRLRN [ADD2_Y31_D28N] | 1.09 | 0.518 | 0.515 | 0.547 | 0.653 | 0.447 | 0.969 | 0.444 | 0.489 | 1.05 | 0.408 | 0.713 | 0.459 | 0.85 | 0.73 | 0.511
EEEYEYMNRRR [ERBB3_Y1199_D1194E] | 1.15 | 0.324 | 0.402 | 0.429 | 0.583 | 0.342 | 0.804 | 0.332 | 0.546 | 0.882 | 0.356 | 0.329 | 0.36 | 0.777 | 0.618 | 0.605
EEGNPYFSSAR [MCCC2_Y520_YF] | 1.01 | 0.446 | 0.623 | 0.461 | 0.648 | 0.43 | 0.966 | 0.61 | 0.638 | 0.818 | 0.462 | 0.796 | 1.15 | 0.769 | 0.627 | 0.51
EELLRYAIVTP [POC5_Y37_H36R] | 0.928 | 0.669 | 0.637 | 0.514 | 0.615 | 0.6 | 0.922 | 0.456 | 0.439 | 0.867 | 3.32 | 0.62 | 0.444 | 0.871 | 14 | 9.68
EERKTYVNTTL [TEK_Y1102] | 0.83 | 0.526 | 0.519 | 0.464 | 0.586 | 0.551 | 0.977 | 0.45 | 0.48 | 0.983 | 0.498 | 0.779 | 0.446 | 8.42 | 0.571 | 0.516
EEVKAYLDFGE [CHAC2_Y78_R82G] | 1.3 | 0.719 | 0.535 | 0.473 | 0.942 | 0.558 | 1.32 | 0.448 | 0.564 | 1.62 | 0.422 | 0.944 | 0.574 | 0.73 | 0.59 | 0.383
EFFDGYWEFSV [ITGA2B_Y265_G267E_YF] | 1.98 | 0.709 | 0.577 | 8.09 | 6.69 | 0.515 | 1.55 | 3.4 | 2.29 | 3.11 | 0.631 | 1.19 | 5.58 | 0.674 | 0.515 | 0.494
EFGEVYKGMLK [EPHA2_Y628] | 0.503 | 0.343 | 0.441 | 0.439 | 0.526 | 0.411 | 0.579 | 0.422 | 0.454 | 0.394 | 0.367 | 0.377 | 0.481 | 1.11 | 0.838 | 0.553
EFISECCGEII [EZH2_Y641_Y641C] | 1.27 | 0.672 | 0.695 | 0.723 | 0.724 | 0.508 | 1.18 | 0.498 | 0.55 | 1.07 | 0.503 | 1.24 | 0.472 | 0.954 | 0.739 | 0.501
EFNINYNNELP [THG1L_Y228] | 0.734 | 0.383 | 0.516 | 0.488 | 0.568 | 0.38 | 0.829 | 0.468 | 0.429 | 1.07 | 0.341 | 0.444 | 0.354 | 0.774 | 0.839 | 0.55
EFQLPYFNTVP [BMPR1A_Y457_M460T_YF] | 0.879 | 0.523 | 0.549 | 0.682 | 0.541 | 0.423 | 0.935 | 0.454 | 0.523 | 1.08 | 0.454 | 0.615 | 1.26 | 1.27 | 0.741 | 0.667
EFTPLYPMLFG [SCLY_Y280] | 1.01 | 0.59 | 0.695 | 12.8 | 9.26 | 0.458 | 1.12 | 0.547 | 0.515 | 1.64 | 2.6 | 0.849 | 0.475 | 0.993 | 4.07 | 0.504
EGGFAYVPLKD [PRIM2_Y208_D204G] | 1.19 | 0.466 | 0.567 | 0.399 | 0.497 | 0.379 | 1.05 | 0.369 | 0.404 | 1.12 | 0.371 | 0.699 | 0.419 | 0.637 | 0.436 | 0.468
EGTGHYLCNAC [GATA5_Y208_D203E] | 0.524 | 0.354 | 0.375 | 0.462 | 0.566 | 0.378 | 0.57 | 0.411 | 0.352 | 0.505 | 0.54 | 0.525 | 0.395 | 1.09 | 0.81 | 0.445
EHTILYSNNST [KANSL1_Y223_T221I] | 0.715 | 0.456 | 0.454 | 0.461 | 0.468 | 0.732 | 0.662 | 0.437 | 0.43 | 0.488 | 0.5 | 0.581 | 0.547 | 0.845 | 0.71 | 0.691

Sequence | phosphorylation enrichment [1] | phosphorylation enrichment [2] | phosphorylation enrichment [3] | phosphorylation enrichment [4] | phosphorylation enrichment [5] | phosphorylation enrichment [6] | phosphorylation enrichment [7] | phosphorylation enrichment [8] | phosphorylation enrichment [9] | phosphorylation enrichment [10] | phosphorylation enrichment [11] | phosphorylation enrichment [12] | phosphorylation enrichment [13] | SH2 binding enrichment [14] | SH2 binding enrichment [15] | SH2 binding enrichment [16]
EKAEVYRSENE [RIOK2_Y348_G349R] | 1.09 | 0.51 | 0.738 | 0.507 | 0.724 | 0.466 | 1.08 | 0.448 | 0.499 | 0.863 | 0.44 | 0.77 | 0.509 | 0.94 | 0.653 | 0.502
EKIANYKEGTF [CLRN1_Y171_YF] | 0.967 | 0.53 | 0.474 | 0.461 | 0.537 | 0.408 | 0.823 | 0.465 | 0.4 | 0.724 | 0.498 | 0.543 | 0.5 | 0.91 | 0.554 | 0.443
EKLIQYCQSKG [AKR1B1_Y199] | 0.52 | 0.487 | 0.563 | 0.44 | 0.493 | 0.425 | 0.644 | 0.448 | 0.446 | 0.573 | 0.423 | 0.462 | 0.479 | 0.854 | 0.466 | 0.572
EKMWSYMKSAE [GRIA3_Y705] | 0.939 | 0.511 | 0.4 | 0.411 | 0.75 | 0.398 | 0.949 | 0.802 | 0.365 | 0.719 | 0.381 | 0.547 | 0.467 | 0.972 | 0.86 | 0.394
EKSREYHRLYE [PIK3R1_Y463_D464H] | 0.538 | 0.428 | 0.435 | 0.455 | 0.466 | 0.432 | 0.616 | 0.498 | 0.539 | 0.637 | 0.525 | 0.52 | 0.519 | 0.647 | 0.589 | 6.12
ELPQTYCVSGP [DYSF_Y1684_G1679E] | 0.791 | 0.533 | 0.532 | 0.417 | 0.594 | 0.515 | 0.816 | 0.469 | 0.435 | 0.826 | 0.447 | 0.633 | 0.641 | 0.838 | 0.881 | 0.47
ENAGFYFRISA | 1.32 | 0.587 | 0.73 | 0.467 | 0.844 | 0.674 | 1.42 | 0.44 | 0.492 | 1.55 | 0.36 | 1 | 0.492 | 0.729 | 0.566 | 0.669
ENAGYYFRVSA | 1.26 | 0.568 | 0.665 | 0.508 | 0.719 | 0.456 | 1.26 | 0.435 | 0.476 | 1.21 | 0.347 | 0.775 | 0.322 | 0.788 | 0.976 | 0.415
ENELTYFCFKK [CD59_Y86_C89Y_YF] | 1.71 | 0.796 | 0.667 | 1.06 | 1.29 | 0.541 | 1.57 | 4.33 | 3.63 | 2.43 | 1.16 | 3.38 | 4.58 | 0.746 | 0.6 | 0.414
ENRKFYMDLKE [PURA_Y156_YF] | 0.917 | 0.492 | 0.691 | 0.503 | 0.738 | 0.487 | 0.989 | 0.408 | 0.469 | 0.963 | 0.432 | 0.557 | 0.375 | 0.841 | 0.558 | 0.506
EPSLVYMVTKI [CPS1_Y768_D767V] | 1.16 | 0.575 | 0.534 | 0.543 | 0.741 | 1.7 | 1.16 | 0.808 | 1.26 | 1.04 | 0.454 | 0.89 | 1.45 | 0.769 | 0.531 | 0.482
EQLQSYQVEII [KRT33A_Y268_A270V] | 1.14 | 0.67 | 0.529 | 0.531 | 0.762 | 0.597 | 1.21 | 0.579 | 0.53 | 0.945 | 0.513 | 0.858 | 0.575 | 0.832 | 0.629 | 0.457
EQSGSYIWVPA [DLG1_Y895] | 1.86 | 0.892 | 0.615 | 8.59 | 5.15 | 0.514 | 1.16 | 0.471 | 0.487 | 1.19 | 3.33 | 0.807 | 0.511 | 0.925 | 0.604 | 0.682
EQWRAYLEGTC [HLA-C_Y183_L180W] | 1.2 | 0.648 | 0.588 | 0.65 | 0.951 | 0.636 | 1.23 | 0.527 | 0.507 | 1.17 | 0.437 | 0.845 | 0.398 | 0.749 | 0.718 | 0.466
ERCAQYKKDGA [ALDOA_Y138] | 0.612 | 0.409 | 0.487 | 0.438 | 0.484 | 0.341 | 0.574 | 0.394 | 0.396 | 0.622 | 0.368 | 0.496 | 0.391 | 1.06 | 0.623 | 0.635
ERKQTYGSCRK [LACTB_Y473] | 0.518 | 0.343 | 0.406 | 0.365 | 0.381 | 0.319 | 0.636 | 0.339 | 0.403 | 0.392 | 0.359 | 0.5 | 0.334 | 1.09 | 1.27 | 0.971
